Biological target: H5 hemagglutinin expressed on transfected cells (pJK2b-HA5) (influenza A virus, subtype H5; strain not stated)
Experiment: cell-based or functional assay

B1: 항체 4D9 (antibody 4D9), purified (antibody, V domains shown)
VH: QVTLRESGPGLVKPSETLSLTCTISGASINTDYWSWIRQPPGKGLEWIGYIYYRGRTNYNPSLRSRVTISVDTSKNQFSLQMTSMTAADTAVYYCARDVTGISRENAFDIWGQGTLVTVSS
VL: AIRMTQSPSSLSASVGDRVTITCRASQSISGYLNWYQQKPGKAPKLLIYAASSLQSGVPSRFSGSGSGTDFTLTISSLQPEDFATYYCQQSYSIPTTFGQGTRLEIK
- cell fusion inhibition: 50 to 60%
